# Measured values from the Immune Epitope Database (IEDB).
# Tests used:
# Assay in all cases: IEDB peptide-MHC binding, purified MHC/competitive/radioactivity; ≥ and ≤ were set here for values at or beyond the usual limits of such assays
# Conditions in all cases: source organism: Bordetella pertussis
# HLA-B*57:01 = target: HLA-B*57:01
# HLA-B*07:02 = target: HLA-B*07:02
# HLA-B*44:03 = target: HLA-B*44:03
# HLA-B*53:01 = target: HLA-B*53:01
# HLA-A*02:01 = target: HLA-A*02:01
# HLA-B*35:01 = target: HLA-B*35:01
sequence,measurement,setting,value
DNEGKMESN,IC50,HLA-B*57:01,≥ 70.4 µM
QPLPPRPVA,IC50,HLA-B*07:02,8.37 µM
TTEYPNARY,IC50,HLA-B*44:03,63.5 µM
AQQLKQADR,IC50,HLA-B*53:01,47.2 µM
VSSPPPVSV,IC50,HLA-A*02:01,49.5 µM
FVWYVDTVI,IC50,HLA-B*53:01,30.2 µM
same,IC50,HLA-A*02:01,0.802 µM
MDAKGGTLL,IC50,HLA-B*35:01,69.9 µM
LPLKANPMH,IC50,HLA-B*53:01,≥ 78.2 µM
TRQGIMDQY,IC50,HLA-B*44:03,63.9 µM
ILLENPAAE,IC50,HLA-A*02:01,18.7 µM
AIRVGRGAR,IC50,HLA-B*53:01,52.7 µM
TFEGKPALE,IC50,HLA-B*53:01,46 µM
VVDGPPSRP,IC50,HLA-B*53:01,69.9 µM
RGSAATFTL,IC50,HLA-B*57:01,10.7 µM
GIGALKAGA,IC50,HLA-A*02:01,69.4 µM
SLFAPHGNV,IC50,HLA-A*02:01,7.09 µM
VPASGAPAA,IC50,HLA-B*35:01,4.66 µM
LPVSLTALD,IC50,HLA-B*53:01,23.1 µM
same,IC50,HLA-B*35:01,7.12 µM
EVAKVEVVP,IC50,HLA-B*35:01,69.9 µM
PELGAAIRV,IC50,HLA-B*44:03,6.51 µM
